77 sequences from the supplement of paper PMC7877785 can be followed below.

± gives the uncertainty stated by the source.

This data set is described as follows: self-splicing fitness, log relative to wild type (ln ratio); higher = more splicing; Tetrahymena group I intron in knt gene, E. coli kanamycin selection, DiMSum; sequences stand for … in CUCUCU…GGAGGGAAAAGUUAUCAGGCAUGCACCUGGUAGCUAGUCUUUAAACCAAUAGAUUGCAUCGGUUUAAAAGGCAAGACCGUCAAAUUGCGGGAAAGGGGUCAACAGCCGUUCAGUACCAAGUCUCAGGGGAAACUUUGAGAUGGCCUUGCAAAGGGUAUGGUAAUAAGCUGACGGACAUGGUCCUAACCACGCAGCCAAGUCCUAAGUCAACAGAUCUUCUGUUGAUAUGGAUGCAGUUCACAGACUAAAUGUCGGUCGGGGAAGAUGUAUUCUUCUCAUAAGAUAUAGUCGGACCUCUCCUUAAUGGGAGCUAGCGGAUGAAGUGAUGCAACACUGGAGCCGCUGGGAACUAAUUUGUAUGCGAAAGUAUAUUGAUUAGUUUUGGAGUACUCGUGGUCG
Summed up:
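Colonies from six replicate transformations of E. coli BL21(DE3) were pooled and amplicon-sequenced on an Illumina HiSeq 2500. The library placed an intron with all eight P1ex-region nucleotides randomised inside the knt kanamycin-resistance gene on pET-22b(+), and cells grew overnight at 37°C or 30°C on LB agar with or without 25 μg/mL kanamycin (plus 100 μg/mL carbenicillin, 50 μM IPTG, 0.2% rhamnose). Fitness is the DiMSum error-weighted combination of wild-type-normalised replicate fold changes, kanamycin versus none.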

Take AAGGAGCAAUAUUACGGAUA: the “self-splicing fitness (ln)” value (30 °C) is -3.9 ± 0.35 and the “self-splicing fitness (ln)” value (37 °C) was -1.99 ± 0.29. Take AAGGAGCAAUAUUACGGCGG: the “self-splicing fitness (ln)” value by setting is: (30 °C) -4.57 ± 0.3; (37 °C) -2.12 ± 0.32. The corresponding values for AAGGAGCAAUAUUACGGCUU are -2.58 ± 0.25 and -1.64 ± 0.28. For the sequence AAGGAGCAAUAUUACGUAUA, the “self-splicing fitness (ln)” value is, setting by setting: (30 °C) -2.76 ± 0.21; (37 °C) -2.85 ± 0.29. As for AAGGAGCAAUAUUACGUCAC, under “37 °C”, the “self-splicing fitness (ln)” value is -1.45 ± 0.46.

For the sequence AAGGAGCAAUAUUACGUCCG, the “self-splicing fitness (ln)” value was -1.79 ± 0.2 (30 °C) and -1.03 ± 0.28 (37 °C). With AAGGAGCAAUAUUACGUGUA, the “self-splicing fitness (ln)” value (37 °C) is -2.29 ± 0.27.

With AAGGAGCAAUAUUACGUUAA, the “self-splicing fitness (ln)” value is -3.12 ± 0.25 (30 °C) and -1.69 ± 0.19 (37 °C). With AAGGAGCAAUAUUACGUUUC, the “self-splicing fitness (ln)” value reads like this: (30 °C) -3.26 ± 0.43; (37 °C) -2.26 ± 0.43. In the same order, the values of AAGUAGCAAUAUUACGAAAG are -2.94 ± 0.27 and -2.17 ± 0.25. In the same order, the values of AAGUAGCAAUAUUACGAACU are -0.525 ± 0.1 and 0.139 ± 0.12. The corresponding values for AAGUAGCAAUAUUACGAGUC are -2.53 ± 0.18 and -2.47 ± 0.3.

With AAGUAGCAAUAUUACGAGUG, the “self-splicing fitness (ln)” value (30 °C) is -3.16 ± 0.18 and the “self-splicing fitness (ln)” value (37 °C) is -2.03 ± 0.19.

Consider AAGUAGCAAUAUUACGAUAC, for which the “self-splicing fitness (ln)” value (30 °C) was -3.92 ± 0.28 and the “self-splicing fitness (ln)” value (37 °C) was -1.71 ± 0.25. Turning to AAGUAGCAAUAUUACGCACC, the “self-splicing fitness (ln)” value is -1.16 ± 0.12 (30 °C) and -0.367 ± 0.2 (37 °C). In the same order, the values of AAGUAGCAAUAUUACGCAUU are -2.16 ± 0.14 and -0.921 ± 0.14. In the same order, the values of AAGUAGCAAUAUUACGCCAA are -2.53 ± 0.24 and -1.55 ± 0.23. As to AAGUAGCAAUAUUACGGCGA, the “self-splicing fitness (ln)” value was -0.41 ± 0.11 (30 °C) and -0.0374 ± 0.11 (37 °C). On to AAGUAGCAAUAUUACGGGUG, for which the “self-splicing fitness (ln)” value runs as follows: (30 °C) -3.43 ± 0.17; (37 °C) -1.14 ± 0.12.

Consider AAGUAGCAAUAUUACGGUGC, for which the “self-splicing fitness (ln)” value (37 °C) is -2.76 ± 0.32.

AAGUAGCAAUAUUACGUAAC: the “self-splicing fitness (ln)” value was -1.51 ± 0.13 (30 °C) and -2.24 ± 0.24 (37 °C). Take AAGUAGCAAUAUUACGUAGU: the “self-splicing fitness (ln)” value was -3.59 ± 0.19 (30 °C) and -2.32 ± 0.21 (37 °C). As for AAGUAGCAAUAUUACGUGAA, the “self-splicing fitness (ln)” value runs as follows: (30 °C) -2.36 ± 0.12; (37 °C) -1.78 ± 0.13. On to AAGUAGCAAUAUUACGUGUC, for which the “self-splicing fitness (ln)” value runs as follows: (30 °C) -2.83 ± 0.27; (37 °C) -2.4 ± 0.28. On to AAUAAGCAAUAUUACGAAUG, for which the “self-splicing fitness (ln)” value is -1.37 ± 0.13 (30 °C) and -0.759 ± 0.17 (37 °C). For AAUAAGCAAUAUUACGACCG, the “self-splicing fitness (ln)” value was -0.621 ± 0.12 (30 °C) and 0.329 ± 0.16 (37 °C). In the same order, the values of AAUAAGCAAUAUUACGAGAG are -2.47 ± 0.14 and -2.01 ± 0.2. Consider AAUAAGCAAUAUUACGAGGC, for which the “self-splicing fitness (ln)” value (37 °C) was -2.31 ± 0.32.

Regarding AAUAAGCAAUAUUACGAUGC, the “self-splicing fitness (ln)” value (30 °C) is -2.4 ± 0.13 and the “self-splicing fitness (ln)” value (37 °C) was -1.45 ± 0.15. As for AAUAAGCAAUAUUACGAUUC, the “self-splicing fitness (ln)” value is, setting by setting: (30 °C) -2.44 ± 0.12; (37 °C) -1.13 ± 0.15. In the case of AAUAAGCAAUAUUACGCAAU, the “self-splicing fitness (ln)” value (30 °C) was -1.59 ± 0.075 and the “self-splicing fitness (ln)” value (37 °C) was -1.22 ± 0.082. For AAUAAGCAAUAUUACGCAUA, the “self-splicing fitness (ln)” value is -1.59 ± 0.16 (30 °C) and -0.617 ± 0.16 (37 °C). Regarding AAUAAGCAAUAUUACGCCCA, the “self-splicing fitness (ln)” value runs as follows: (30 °C) 0.0107 ± 0.1; (37 °C) -0.447 ± 0.15. On to AAUAAGCAAUAUUACGCUCC, for which the “self-splicing fitness (ln)” value (30 °C) is -1.46 ± 0.23 and the “self-splicing fitness (ln)” value (37 °C) was -0.799 ± 0.24.

In the case of AAUAAGCAAUAUUACGGAAA, the “self-splicing fitness (ln)” value is -1.5 ± 0.33 (30 °C) and -2.03 ± 0.39 (37 °C).

As for AAUAAGCAAUAUUACGGAGU, the “self-splicing fitness (ln)” value (30 °C) is -3.06 ± 0.25 and the “self-splicing fitness (ln)” value (37 °C) is -2.13 ± 0.32.

Take AAUAAGCAAUAUUACGGGCG: the “self-splicing fitness (ln)” value (30 °C) was -1.29 ± 0.086 and the “self-splicing fitness (ln)” value (37 °C) was -0.752 ± 0.095. As to AAUAAGCAAUAUUACGGUAA, the “self-splicing fitness (ln)” value (30 °C) is -1.73 ± 0.16 and the “self-splicing fitness (ln)” value (37 °C) is -1.03 ± 0.11. With AAUAAGCAAUAUUACGUACU, the “self-splicing fitness (ln)” value (30 °C) was found to be 0.573 ± 0.1 and the “self-splicing fitness (ln)” value (37 °C) was -0.654 ± 0.095.

On to AAUAAGCAAUAUUACGUAUU, for which the “self-splicing fitness (ln)” value is -3.58 ± 0.17 (30 °C) and -2.22 ± 0.15 (37 °C). The corresponding values for AAUAAGCAAUAUUACGUCCA are -0.808 ± 0.13 and -0.899 ± 0.19. The corresponding values for AAUAAGCAAUAUUACGUCCG are -1.15 ± 0.11 and -0.82 ± 0.15.

Take AAUAAGCAAUAUUACGUGCC: under “37 °C”, the “self-splicing fitness (ln)” value was 0.782 ± 0.26. For AAUAAGCAAUAUUACGUGCG, the “self-splicing fitness (ln)” value by setting is: (30 °C) -1.1 ± 0.065; (37 °C) -0.488 ± 0.083. Turning to AAUAAGCAAUAUUACGUGUU, the “self-splicing fitness (ln)” value (30 °C) is -3.01 ± 0.097 and the “self-splicing fitness (ln)” value (37 °C) was -2.58 ± 0.13. AAUCAGCAAUAUUACGACAG: the “self-splicing fitness (ln)” value was -1.31 ± 0.083 (30 °C) and -0.761 ± 0.1 (37 °C). Turning to AAUCAGCAAUAUUACGACGA, the “self-splicing fitness (ln)” value is -0.461 ± 0.082 (30 °C) and 0.386 ± 0.1 (37 °C). In the same order, the values of AAUCAGCAAUAUUACGAGAA are -1.61 ± 0.26 and -1.61 ± 0.2. AAUCAGCAAUAUUACGAUCC: the “self-splicing fitness (ln)” value runs as follows: (30 °C) 0.138 ± 0.13; (37 °C) -0.291 ± 0.17.

In the case of AAUCAGCAAUAUUACGAUGA, the “self-splicing fitness (ln)” value came to 0.103 ± 0.059 (30 °C) and 0.0645 ± 0.083 (37 °C). Turning to AAUCAGCAAUAUUACGCCAU, the “self-splicing fitness (ln)” value was -2.35 ± 0.19 (30 °C) and -1.76 ± 0.14 (37 °C).

Take AAUCAGCAAUAUUACGCCGA: the “self-splicing fitness (ln)” value by setting is: (30 °C) -1.17 ± 0.09; (37 °C) -0.332 ± 0.11.

For the sequence AAUCAGCAAUAUUACGCGUU, the “self-splicing fitness (ln)” value (30 °C) is -0.956 ± 0.057 and the “self-splicing fitness (ln)” value (37 °C) was -0.765 ± 0.076.

AAUCAGCAAUAUUACGGAAA: the “self-splicing fitness (ln)” value runs as follows: (30 °C) -1.19 ± 0.099; (37 °C) 0.0734 ± 0.12.

As for AAUCAGCAAUAUUACGGAUU, the “self-splicing fitness (ln)” value is -2.89 ± 0.15 (30 °C) and -2.74 ± 0.16 (37 °C). As to AAUCAGCAAUAUUACGGCGU, the “self-splicing fitness (ln)” value runs as follows: (30 °C) 0.47 ± 0.068; (37 °C) 0.7 ± 0.076. For the sequence AAUCAGCAAUAUUACGGGGA, the “self-splicing fitness (ln)” value runs as follows: (30 °C) -1.82 ± 0.1; (37 °C) -0.723 ± 0.1. Consider AAUCAGCAAUAUUACGGGGG, for which the “self-splicing fitness (ln)” value is, setting by setting: (30 °C) -1.11 ± 0.1; (37 °C) -1.66 ± 0.13. For AAUCAGCAAUAUUACGGUAA, the “self-splicing fitness (ln)” value worked out at 0.0235 ± 0.065 (30 °C) and 0.0455 ± 0.063 (37 °C). The corresponding values for AAUCAGCAAUAUUACGGUAG are -1.83 ± 0.092 and -0.774 ± 0.097.

For AAUCAGCAAUAUUACGUCAU, the “self-splicing fitness (ln)” value reads like this: (30 °C) 0.166 ± 0.064; (37 °C) 0.337 ± 0.077. AAUCAGCAAUAUUACGUCCU: the “self-splicing fitness (ln)” value is, setting by setting: (30 °C) 0.497 ± 0.09; (37 °C) 0.632 ± 0.11.

AAUCAGCAAUAUUACGUUCC: the “self-splicing fitness (ln)” value (30 °C) was -2.26 ± 0.24 and the “self-splicing fitness (ln)” value (37 °C) was -0.62 ± 0.22. The corresponding values for AAUGAGCAAUAUUACGAUAG are -3.68 ± 0.27 and -2.04 ± 0.34. In the same order, the values of AAUGAGCAAUAUUACGAUAU are -3.25 ± 0.25 and -0.861 ± 0.22. As to AAUGAGCAAUAUUACGCACG, the “self-splicing fitness (ln)” value (30 °C) was -3.21 ± 0.36. AAUGAGCAAUAUUACGCUAC: the “self-splicing fitness (ln)” value by setting is: (30 °C) -3.12 ± 0.27; (37 °C) -2.84 ± 0.34. The corresponding values for AAUGAGCAAUAUUACGGAAG are -3.49 ± 0.3 and -2.63 ± 0.23.

With AAUGAGCAAUAUUACGGACU, the “self-splicing fitness (ln)” value (30 °C) was -1.59 ± 0.13 and the “self-splicing fitness (ln)” value (37 °C) is -2.04 ± 0.19. The corresponding values for AAUGAGCAAUAUUACGGAGA are -2.59 ± 0.4 and -2.51 ± 0.34.

Take AAUGAGCAAUAUUACGGAGG: the “self-splicing fitness (ln)” value runs as follows: (30 °C) -2.69 ± 0.33; (37 °C) -2.45 ± 0.38. In the same order, the values of AAUGAGCAAUAUUACGGCUA are -2.14 ± 0.24 and -0.372 ± 0.16.

With AAUGAGCAAUAUUACGGCUG, the “self-splicing fitness (ln)” value (30 °C) was -1.52 ± 0.096 and the “self-splicing fitness (ln)” value (37 °C) was -1.47 ± 0.16. In the same order, the values of AAUGAGCAAUAUUACGGGCA are -3.76 ± 0.42 and -1.24 ± 0.29. The corresponding values for AAUGAGCAAUAUUACGGGGU are -2.97 ± 0.18 and -2.29 ± 0.21. The corresponding values for AAUGAGCAAUAUUACGUAGA are -2.46 ± 0.24 and -2.56 ± 0.27. As to AAUGAGCAAUAUUACGUAGG, the “self-splicing fitness (ln)” value reads like this: (30 °C) -3.19 ± 0.15; (37 °C) -2.6 ± 0.24.
